The experiment has as its target IL-1 receptors (on articular chondrocytes). The experiment can be described thus: cell-based or functional assay.

“human interleukin-1 receptor antagonist protein (IRAP) (from UniProt P18510 26-177) (ligand)” registered an inhibition of gelatinase production by IL-1 treated chondrocytes, 5 U/ml IL-1, first culture's conditioned medium of 100%; an inhibition of gelatinase production by IL-1 treated chondrocytes, 5 U/ml IL-1, second culture's conditioned medium of 41%; an inhibition of gelatinase production by IL-1 treated chondrocytes, 10 U/ml IL-1, first culture's conditioned medium of 38%; an inhibition of gelatinase production by IL-1 treated chondrocytes, 10 U/ml IL-1, second culture's conditioned medium of 18%.

The values above are taken from patent US7037492.
